The assay deals with wild type plasma kallikrein recombinant catalytic domain (Pichia pastoris) (human) (UniProt P03952). The assay can be described thus: enzyme inhibition assay: rate (F/s) of cleavage of a substrate peptide by PKal against [IgG] (nM), fitted to the Morrison equation (apparent Ki); panel 'X115-F02 vs WT'.

Experimental findings from patent publication US20160017055A1 are described below.

B1: X115-F02 (antibody, human IgG1, kappa, V domains shown)
VH: EVQLLESGGGLVQPGGSLRLSCAASGFTFSHYIMMWVRQAPGKGLEWVSGIYSSGGITVYADSVKGRFTISRDNSKNTLYLQMNSLRAEDTAVYYCAYRRIGVPRRDEFDIWGQGTMVTVSS
VL: DIQMTQSPSTLSASVGDRVTITCRASQSISSWLAWYQQKPGKAPKLLIYKASTLESGVPSRFSGSGSGTEFTLTISSLQPDDFATYYCQQYNTYWTFGQGTKVEIKR
Turning to B1, the Ki is 0.09 nM.
